Results: patent US20250340646A1 (ELPIS BIOPHARMACEUTICALS, published 2025)

Tests used:
[1] = target: T1, recombinant His-tagged human IL-2Rβ (human, UniProt P14784 27-240, limits assumed); experiment: ELISA, coated His-tagged IL-2Rβ
T1 construct: also called IL-2Rβ-HIS; IL-15Rβ-HIS
T1 sequence (looked up): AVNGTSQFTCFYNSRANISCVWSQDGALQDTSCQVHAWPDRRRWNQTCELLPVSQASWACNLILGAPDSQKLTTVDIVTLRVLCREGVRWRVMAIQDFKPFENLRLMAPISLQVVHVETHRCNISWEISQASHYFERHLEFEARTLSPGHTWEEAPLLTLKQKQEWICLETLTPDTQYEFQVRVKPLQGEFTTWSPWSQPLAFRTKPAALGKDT
Description: For monovalent IL-2 Fc-fusion proteins, recombinant His-tagged human IL-2Rα and IL-2Rβ were added in 25 μL of 1×PBS to wells of 384-well plate and incubated overnight at 4° C. to coat the plates. Plates were washed three times with 0.05% Tween20/1×PBS. Plates were blocked with 100 μL of SuperBlock for 1 hr at RT and then washed 3 times with 0.05% Tween20/1×PBS. IL-2 mutants were diluted in 0.05% Tween 20/1×PBS from 1000 nM to 0 nM and added to plates for 2 hrs at room temperature. Plates were then washed 6 times with 0.05% Tween20/1×PBS. Anti-HisTag-HRP was diluted 1:5000 in 0.05% Tween20/1×PBS and added to plates for 1 hr at RT. Plates were then washed 6 times with 0.05% Tween 20/1×PBS, and TMB was added to develop blue color. Reactions were stopped with 2N […] and light absorbance at 450 nm was read on a BioTek plate reader. Absorbance versus IL-2 concentration is graphed for human IL-2Rα and IL-2Rβ. […]

[2] = target: T2, human PD-L1-HIS tagged recombinant protein (human, UniProt Q9NZQ7 19-238); experiment: SPR, Protein A capture, PD-L1-HIS analyte
T2 construct: also called hPD-L1-HIS; PD-L1 HIS tagged protein
Description: (§1) The assay was run with Biacore T200 control software version 2.0. For each cycle, 1 μg/mL of anti-hPD-L1/IL-2 was captured for 60 seconds at flow rate of 10 μL/min on flow cell 2 in 1×HBSP buffer on Protein A sensor chip. […] The flow cells were then regenerated with Glycine pH2 for 60 seconds at flow rate of 30 μL/min. […] The specific binding response unit was derived from subtraction of binding to reference flow cell 1 from antibody captured flow cell 2.

[3] = target: T1, recombinant His-tagged human IL-2Rβ; experiment: SPR, Protein A capture, IL-2Rβ-HIS analyte
Description: as §1

[4] = target: biotinylated PD-L1 (Homo sapiens (Human), UniProt Q9NZQ7 19-238, biotinylated; site not stated); experiment: ELISA, anti-human Fc capture, biotinylated PD-L1
Description: A 384 well plate was immobilized with anti-human Fc at final concentration of 2 μg/mL in 1×PBS in total volume of 25 μL per well. The plate was incubated overnight at 4C followed by blocking with 80 μL of superblock per well for 1 hour. […] In between each step, the plate was washed 3 times with 1×PBST in a plate washer. The plate was then developed with 25 μL of TMB substrate for 5 min and stopped by adding 25 μL of 2N sulfuric acid. The plate was read at OD450 nm Biotek plate reader and the binding correlation was plotted with Prism 8.1 software. The ELISA binding assays of the antibodies to IL-2Rα and IL-2Rβ receptors were performed as described in Example 6.

[5] = target: T3, full-length human PD-L1 on K562 cells (human, UniProt Q9NZQ7 19-290); experiment: FACS, PD-L1/K562 cells
T3 construct: also called PD-L1/K562; cell surface human PD-L1
Description: Cells were spun down at 1200 rpm for 5 minutes at 4° C. to remove primary antibodies. Cells were then washed once with 200 μL of full medium per well. […] Samples were spun down at 1200 rpm for 5 minutes at 4° C. and washed twice with 200 μL of 1×PBS per well. Samples were reconstituted in 200 μL of 1×PBS and were read on Attune NxT cytometer.

T2 sequence (Q9NZQ7 19-238 limits assumed): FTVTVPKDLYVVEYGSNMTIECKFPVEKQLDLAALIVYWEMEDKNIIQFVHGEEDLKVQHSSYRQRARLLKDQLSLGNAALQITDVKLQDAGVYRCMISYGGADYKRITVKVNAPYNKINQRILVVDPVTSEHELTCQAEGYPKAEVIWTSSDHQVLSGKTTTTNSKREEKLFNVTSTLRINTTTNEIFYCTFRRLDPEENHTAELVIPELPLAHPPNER
Chain of biotinylated PD-L1 (Q9NZQ7 19-238 limits assumed): as above
T3 sequence (Q9NZQ7 19-290 limits assumed): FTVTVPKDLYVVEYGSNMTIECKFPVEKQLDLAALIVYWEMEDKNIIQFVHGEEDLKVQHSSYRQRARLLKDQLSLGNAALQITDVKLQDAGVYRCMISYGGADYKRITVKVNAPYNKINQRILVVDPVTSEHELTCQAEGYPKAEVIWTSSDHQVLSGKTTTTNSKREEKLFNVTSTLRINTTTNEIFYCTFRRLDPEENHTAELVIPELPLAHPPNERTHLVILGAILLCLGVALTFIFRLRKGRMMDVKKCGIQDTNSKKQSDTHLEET

| Binder | EC50 [1] [nM] | Kd [2] [nM] | Kd [3] [nM] | EC50 [4] [nM] | EC50 [5] [nM] | further results |
| --- | --- | --- | --- | --- | --- | --- |
| IL-2/anti-PD-L1 scFv Fc EP417/EP326 (bispecific antibody, IL2 EP339) chain 1: not shown chain 2: QVQLVQSGAEVKKPGSSVKVSCKASGGTFSSYAISWVRQAPGQGLEWMGGIIPIFGTANYAQKFQGRVTITADESTSTAYMELSSLRSEDTAVYYCARDKWYGSAWRGDYWGQGTLVTVSSGGGGSGGGGSGGGGSQSVLTQPPSASGTPGQRVTISCSGSYSNIGSNFVNWYQQLPGTAPKLLIHFNNQRPSGVPDRFSGSRSGTSASLAISGLQSEDEADYFCSTWDDSLKGPIFGGGTKLTVLDKTHTCPPCPAPEAAGGPSVFLFPPKPKDTLMISRTPEVTCVVVDVSHEDPEVKFNWYVDGVEVHNAKTKPREEQYNSTYRVVSVLTVLHQDWLNGKEYKCKVSNKALGAPIEKTISKAKGQPREPQVCTLPPSRDELTKNQVSLSCAVKGFYPSDIAVEWESNGQPENNYKTTPPVLDSDGSFKLVSKLTVDKSRWQQGNVFSCSVMHEALHNHYTQKSLSLSPGK | 0.515 | 0.429 | 21.9 | 0.188 | – | – |
| 2018EP161-F08 scFv (scFv, V domains shown) VH: not shown VL: DIVMTQSPSSLSASVGDRVTITCRASQTVSTYINWYQQRSGKGPKLLIFDASRLQSGAPSRFSGSGSGTEFTLTITSLQPDDSATYYCQQSYRIPLSFGGGTKVEIR | – | – | – | – | 7.72 | – |
| 2018EP172-F10 scFv (scFv, V domains shown) VH: QMQLVQSGAEVKKPGSSVKVSCKASGGTFSSYAISWVRQAPGQGLEWMGGIIPIFGTANYAQKFQGRVTITADESTSTAYMELSSLRSEDTAVYYCARDKGYGSGWRGDYWGQGTLVTVSS VL: QSVLTQPPSASGTPGQRVTISCSGSYSNIGSNFVNWYQQLPGTAPKLLIHFDNQRPSGVPDRFSGSRSGTSASLAISGLQSEDEADYFCSTWDDSLKGPIFGGGTKLTVL | – | – | – | – | < 1 | – |
| 2018EP164-F04 scFv (scFv, V domains shown) VH: QVQLQQWGAGLLKPSETLSLTCAVYGGSFSGYYWSWIRQPPGKGLEWIGEINHSGSTNYNPSLKSRVTISVDTSKNQFSLKLSSVTAADTAVYYCARGRRLRYFDWAAYNWFDPWGQGTLVTVSS VL: QSALTQDPAVSVALGQTVRITCQGDSLRSHYASWYQQKPGQAPVVVVYDNSDRPSGIPDRFSGSNSGNTATLTISRVEVGDEADYYCQVWDSSSDHYVFGTGTKV | – | – | – | – | < 1 | – |

Now from value to binder, other results behind:

| EC50 [1] [nM] | Kd [2] [nM] | Kd [3] [nM] | EC50 [4] [nM] | EC50 [5] [nM] | Binder | further results |
| --- | --- | --- | --- | --- | --- | --- |
| 0.552 | 0.34 | 1.87 | 0.246 | – | IL-2/anti-PD-L1 scFv Fc EP291/EP326 (bispecific antibody, IL2 EP003) chain 1: not shown chain 2: QVQLVQSGAEVKKPGSSVKVSCKASGGTFSSYAISWVRQAPGQGLEWMGGIIPIFGTANYAQKFQGRVTITADESTSTAYMELSSLRSEDTAVYYCARDKWYGSAWRGDYWGQGTLVTVSSGGGGSGGGGSGGGGSQSVLTQPPSASGTPGQRVTISCSGSYSNIGSNFVNWYQQLPGTAPKLLIHFNNQRPSGVPDRFSGSRSGTSASLAISGLQSEDEADYFCSTWDDSLKGPIFGGGTKLTVLDKTHTCPPCPAPEAAGGPSVFLFPPKPKDTLMISRTPEVTCVVVDVSHEDPEVKFNWYVDGVEVHNAKTKPREEQYNSTYRVVSVLTVLHQDWLNGKEYKCKVSNKALGAPIEKTISKAKGQPREPQVCTLPPSRDELTKNQVSLSCAVKGFYPSDIAVEWESNGQPENNYKTTPPVLDSDGSFKLVSKLTVDKSRWQQGNVFSCSVMHEALHNHYTQKSLSLSPGK | – |
| 0.43 | 0.19 | 3.32 | 0.108 | – | IL-2/anti-PD-L1 scFv Fc EP297/EP326 (bispecific antibody, IL2 EP001) chain 1: not shown chain 2: QVQLVQSGAEVKKPGSSVKVSCKASGGTFSSYAISWVRQAPGQGLEWMGGIIPIFGTANYAQKFQGRVTITADESTSTAYMELSSLRSEDTAVYYCARDKWYGSAWRGDYWGQGTLVTVSSGGGGSGGGGSGGGGSQSVLTQPPSASGTPGQRVTISCSGSYSNIGSNFVNWYQQLPGTAPKLLIHFNNQRPSGVPDRFSGSRSGTSASLAISGLQSEDEADYFCSTWDDSLKGPIFGGGTKLTVLDKTHTCPPCPAPEAAGGPSVFLFPPKPKDTLMISRTPEVTCVVVDVSHEDPEVKFNWYVDGVEVHNAKTKPREEQYNSTYRVVSVLTVLHQDWLNGKEYKCKVSNKALGAPIEKTISKAKGQPREPQVCTLPPSRDELTKNQVSLSCAVKGFYPSDIAVEWESNGQPENNYKTTPPVLDSDGSFKLVSKLTVDKSRWQQGNVFSCSVMHEALHNHYTQKSLSLSPGK | koff [2]: 0.000149 s⁻¹; kon [2]: 782000 M⁻¹ s⁻¹; koff [3]: 0.00854 s⁻¹; kon [3]: 2.57e+06 M⁻¹ s⁻¹ |
| 0.51 | – | – | 0.212 | – | IL-2/anti-PD-L1 scFv Fc EP414/EP326 (bispecific antibody, IL2 EP003 carrying K35L/R38D/F42R) chain 1: not shown chain 2: QVQLVQSGAEVKKPGSSVKVSCKASGGTFSSYAISWVRQAPGQGLEWMGGIIPIFGTANYAQKFQGRVTITADESTSTAYMELSSLRSEDTAVYYCARDKWYGSAWRGDYWGQGTLVTVSSGGGGSGGGGSGGGGSQSVLTQPPSASGTPGQRVTISCSGSYSNIGSNFVNWYQQLPGTAPKLLIHFNNQRPSGVPDRFSGSRSGTSASLAISGLQSEDEADYFCSTWDDSLKGPIFGGGTKLTVLDKTHTCPPCPAPEAAGGPSVFLFPPKPKDTLMISRTPEVTCVVVDVSHEDPEVKFNWYVDGVEVHNAKTKPREEQYNSTYRVVSVLTVLHQDWLNGKEYKCKVSNKALGAPIEKTISKAKGQPREPQVCTLPPSRDELTKNQVSLSCAVKGFYPSDIAVEWESNGQPENNYKTTPPVLDSDGSFKLVSKLTVDKSRWQQGNVFSCSVMHEALHNHYTQKSLSLSPGK | – |
| 1.24 | 0.39 | 26.5 | 0.298 | – | IL-2/anti-PD-L1 scFv Fc EP416/EP326 (bispecific antibody, IL2 EP338) chain 1: not shown chain 2: QVQLVQSGAEVKKPGSSVKVSCKASGGTFSSYAISWVRQAPGQGLEWMGGIIPIFGTANYAQKFQGRVTITADESTSTAYMELSSLRSEDTAVYYCARDKWYGSAWRGDYWGQGTLVTVSSGGGGSGGGGSGGGGSQSVLTQPPSASGTPGQRVTISCSGSYSNIGSNFVNWYQQLPGTAPKLLIHFNNQRPSGVPDRFSGSRSGTSASLAISGLQSEDEADYFCSTWDDSLKGPIFGGGTKLTVLDKTHTCPPCPAPEAAGGPSVFLFPPKPKDTLMISRTPEVTCVVVDVSHEDPEVKFNWYVDGVEVHNAKTKPREEQYNSTYRVVSVLTVLHQDWLNGKEYKCKVSNKALGAPIEKTISKAKGQPREPQVCTLPPSRDELTKNQVSLSCAVKGFYPSDIAVEWESNGQPENNYKTTPPVLDSDGSFKLVSKLTVDKSRWQQGNVFSCSVMHEALHNHYTQKSLSLSPGK | – |
| 0.613 | – | – | 0.206 | – | IL-2/anti-PD-L1 scFv Fc EP419/EP326 (bispecific antibody, IL2 EP343) chain 1: not shown chain 2: QVQLVQSGAEVKKPGSSVKVSCKASGGTFSSYAISWVRQAPGQGLEWMGGIIPIFGTANYAQKFQGRVTITADESTSTAYMELSSLRSEDTAVYYCARDKWYGSAWRGDYWGQGTLVTVSSGGGGSGGGGSGGGGSQSVLTQPPSASGTPGQRVTISCSGSYSNIGSNFVNWYQQLPGTAPKLLIHFNNQRPSGVPDRFSGSRSGTSASLAISGLQSEDEADYFCSTWDDSLKGPIFGGGTKLTVLDKTHTCPPCPAPEAAGGPSVFLFPPKPKDTLMISRTPEVTCVVVDVSHEDPEVKFNWYVDGVEVHNAKTKPREEQYNSTYRVVSVLTVLHQDWLNGKEYKCKVSNKALGAPIEKTISKAKGQPREPQVCTLPPSRDELTKNQVSLSCAVKGFYPSDIAVEWESNGQPENNYKTTPPVLDSDGSFKLVSKLTVDKSRWQQGNVFSCSVMHEALHNHYTQKSLSLSPGK | – |
| – | – | – | – | 5.1 | 2018EP173-H11 scFv (scFv, V domains shown, not shown: scFv linker and domain order of the library scFv) VH: QVQLVQSGGGLVKPGGSLRLSCAASGFTFSSYSMNWVRQAPGKGLEWVSSISSSSSYIYYADSVKGRFTISRDNAKNSLYLQMNSLKAEDTAVYYCARDSLQWLALDYWGQGTLVTVSS VL: QPVLTQPPSVSVAPGETATITCGGNNIGRKSVHWYLQKPGQAPVLVIGHDTDRPSGIPARFSGSNSGNTATLTINRVEAGDEADYYCQVWDTSGHHYVFGTGTKVTVL | – |
